Experimental data reported in patent publication US20230312724A1 (KADMON, published 2023).
Like-named read-outs stand apart in the source and are kept apart here. Each block holds one binder with its values, some of them ahead of it.

Experiments:
[1] = biological target: T1, mB7-H4 (soluble mouse B7-H4, construct not named) (mouse, UniProt Q7TSP5 25-257, limits assumed); test: ELISA, mB7-H4
T1 sequence: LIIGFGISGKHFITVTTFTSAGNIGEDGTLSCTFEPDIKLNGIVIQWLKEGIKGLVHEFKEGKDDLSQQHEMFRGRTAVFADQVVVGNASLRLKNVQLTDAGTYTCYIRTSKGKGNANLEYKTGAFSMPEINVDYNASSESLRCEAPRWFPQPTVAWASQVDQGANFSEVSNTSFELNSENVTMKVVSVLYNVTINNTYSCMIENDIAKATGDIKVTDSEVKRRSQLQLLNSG
Summary of the method: (§1)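 Coat: B7-H4-Fc or his-tagged protein, ~1-2 μg/ml, 4° C overnight. Block 3% PBS+milk; serial antibody dilutions 1-1.5 h RT; wash PBS-T (0.05%); HRP anti-hFab; TMB, 1N H₂SO₄ stop; OD450. EC50 from dose-response fit.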

mouse B7-H4-Fc [2] = biological target: T2, mouse B7-H4-Fc (mouse; human); test: SPR (Biacore)
T2 construct: also called mB7-H4-Fc; mB7-H4-hFc

[3] = biological target: T1, mB7-H4 (soluble mouse B7-H4, construct …); test: SPR (Biacore)
Summary of the method: (§2)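 Kinetic constants came from a 1:1 Langmuir fit of binding at 25 °C in HBS-EP, pH 7.4. Analyte (100 nM to 0.1 nM) flowed for 180 s, then dissociated for 1000 or 1200 s, over amine-coupled human B7-H4-Fc, human B7-H4-his or mouse B7-H4-Fc surfaces at 50-100 RU.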

[4] = biological target: T3, hB7-H4 (soluble human B7-H4, construct not named) (human, UniProt Q7Z7D3 25-259, limits assumed); test: SPR (Biacore)
T3 construct: also called soluble hB7-H4
T3 sequence: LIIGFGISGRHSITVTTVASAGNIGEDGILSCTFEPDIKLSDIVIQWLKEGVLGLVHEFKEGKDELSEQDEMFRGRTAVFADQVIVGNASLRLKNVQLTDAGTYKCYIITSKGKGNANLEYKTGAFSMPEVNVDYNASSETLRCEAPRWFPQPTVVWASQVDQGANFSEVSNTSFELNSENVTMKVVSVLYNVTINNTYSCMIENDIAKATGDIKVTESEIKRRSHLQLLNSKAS
Summary of the method: as §2

[5] = biological target: T4, mouse B7-H4 expressed on cells (mouse, UniProt Q7TSP5 25-257); test: flow cytometry, mB7-H4/CT26 cells
T4 construct: also called cellular mB7-H4; mB7-H4/CT26
T4 sequence: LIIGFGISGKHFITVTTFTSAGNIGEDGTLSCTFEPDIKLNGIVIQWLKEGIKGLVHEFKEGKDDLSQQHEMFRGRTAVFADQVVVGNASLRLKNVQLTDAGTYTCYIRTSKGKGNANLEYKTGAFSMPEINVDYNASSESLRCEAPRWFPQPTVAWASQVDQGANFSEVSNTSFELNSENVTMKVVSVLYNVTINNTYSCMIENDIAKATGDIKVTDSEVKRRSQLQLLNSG
Summary of the method: (§3)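 Binding read on a Guava flow cytometer after two-step staining at 4 °C: serial dilutions of antibody or fusion protein for 1 h, then 1:200 secondary antibody for 30 min in the dark. Cells suspended at 1×10⁶ cells/ml in cold FACS buffer, washed three times between steps.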

[6] = biological target: T5, IgV domain of human B7-H4-Fc (human); test: ELISA, coated hB7-H4 IgV domain
T5 construct: also called hB7-H4 IgV domain

[7] = biological target: T6, human B7-H4 expressed on cells (human, UniProt Q7Z7D3 25-282); test: flow cytometry, SK-BR-3 cells
T6 construct: Transfected CHO cells or tumor cell lines that carry hB7-H4; also called cellular hB7-H4
T6 sequence: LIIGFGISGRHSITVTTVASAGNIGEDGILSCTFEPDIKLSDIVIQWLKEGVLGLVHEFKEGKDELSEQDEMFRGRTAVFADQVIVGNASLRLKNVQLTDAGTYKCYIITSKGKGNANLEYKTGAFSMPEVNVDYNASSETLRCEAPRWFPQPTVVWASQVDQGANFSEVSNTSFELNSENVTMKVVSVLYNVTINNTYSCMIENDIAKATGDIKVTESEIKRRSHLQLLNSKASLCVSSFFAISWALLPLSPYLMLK
Summary of the method: as §3

human B7-H4-Fc [8] = biological target: T7, human B7-H4-Fc (human); test: SPR (Biacore)
T7 construct: also called hB7-H4-Fc; hB7-H4 Fc

[9] = biological target: T3, hB7-H4 (soluble human B7-H4, construct …); test: ELISA, hB7-H4
Summary of the method: as §1

[10] = biological target: T8, IgV domain of mouse B7-H4-Fc (mouse; human); test: ELISA, coated mB7-H4 IgV domain
T8 construct: also called mB7-H4 IgV domain

[11] = biological target: T9, IgC domain of human B7-H4-Fc (human); test: ELISA, coated hB7-H4 IgC domain
T9 construct: also called hB7-H4 IgC domain
Experimental: (§4) About 1-2 μg/ml of human or mouse B7-H4-Fc (or his-tagged) was immobilized on ELISA plates (Immuno 2HB, Thermo scientific, cat #3455) at 4° C. overnight. After blocking the plates with 3% PBS+milk, serial diluted antibodies were added to the blocked plates and incubated at RT for 1-1.5 h. After washing the plates with PBS-T (0.05%), horse radish peroxidase (HRP)-conjugated antibody targeting the hFab was added to the plate. Signals were developed by adding 3,3′,5,5′-Tetramethylbenzidine (TMB (followed 1N of H₂SO₄ to stop the reaction. The OD at 450 nm was read by ELISA plate reader (Infinite M1000 from TECAN). GraphPad from Prism was used to plot OD450 vs. antibody concentration curve and to calculate the EC50 values.

[12] = biological target: T10, IgC domain of mouse B7-H4-Fc (mouse; human); test: ELISA, coated mB7-H4 IgC domain
T10 construct: also called mB7-H4 IgC domain
Experimental: as §4

[13] = biological target: T8, IgV domain of mouse B7-H4-Fc; test: ELISA, coated mB7-H4 IgV domain; remark: listed apart in the source
Summary of the method: as §1

human B7-H4-his [14] = biological target: T11, human B7-H4-his (human, UniProt Q7Z7D3 25-259); test: SPR (Biacore)
T11 construct: also called hB7-H4-his; hB7-H4 his; not shown: his tag
T11 sequence: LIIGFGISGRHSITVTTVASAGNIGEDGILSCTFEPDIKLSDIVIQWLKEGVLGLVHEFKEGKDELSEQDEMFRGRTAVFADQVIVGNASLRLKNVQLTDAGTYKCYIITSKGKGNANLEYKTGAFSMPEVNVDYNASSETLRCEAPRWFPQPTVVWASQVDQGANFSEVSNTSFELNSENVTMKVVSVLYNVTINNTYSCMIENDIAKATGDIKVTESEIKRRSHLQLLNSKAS

mouse B7-H4-his = biological target: T12, mouse B7-H4-his (mouse, UniProt Q7TSP5 25-257); test: SPR (Biacore)
T12 construct: also called mB7-H4-his; mB7-H4-His; not shown: his tag
T12 sequence: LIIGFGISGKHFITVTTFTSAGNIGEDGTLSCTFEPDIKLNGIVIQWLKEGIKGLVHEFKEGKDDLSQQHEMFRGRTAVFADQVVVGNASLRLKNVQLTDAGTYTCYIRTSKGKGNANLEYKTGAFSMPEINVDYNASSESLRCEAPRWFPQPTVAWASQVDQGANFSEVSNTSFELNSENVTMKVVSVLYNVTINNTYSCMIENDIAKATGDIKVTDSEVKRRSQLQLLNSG

[15] = biological target: T5, IgV domain of human B7-H4-Fc; test: ELISA, coated hB7-H4 IgV domain; remark: listed apart in the source
Experimental: as §4

[16] = biological target: T1, mB7-H4 (soluble mouse B7-H4, construct …); test: summary of ELISA and flow cytometry
mouse B7-H4-Fc [17] = biological target: T2, mouse B7-H4-Fc; test: ELISA, coated mB7-H4-Fc
Summary of the method: as §1

human B7-H4-Fc [18] = biological target: T7, human B7-H4-Fc; test: ELISA, coated hB7-H4-Fc
Experimental: as §4

[19] = biological target: T4, mouse B7-H4 expressed on cells; test: flow cytometry, CHO cells expressing mB7-H4
mouse B7-H4-Fc [20] = biological target: T2, mouse B7-H4-Fc; test: ELISA, coated mB7-H4-Fc; remark: listed apart in the source
Experimental: (§5) ELISA experiments were performed to determine binding to hB7-H4-Fc (FIG. 5A), hB7-H4-his (FIG. 5B), mB7-H4-Fc domain (FIG. 5C), hB7-H4 IgV domain (FIG. 5D), and hB7-H4 IgC domain (FIG. 5E). Flow cytrometry experiments were performed to determine binding to CHO cells expressing hB7-H4 (FIG. 5F) or mB7-H4 (FIG. 5G). […] A cross-reactive IgV binding antibody and an IgC binding antibody were used as controls.
as §4

human B7-H4-his [21] = biological target: T11, human B7-H4-his; test: ELISA, coated hB7-H4-his
Experimental: as §4

[22] = biological target: T5, IgV domain of human B7-H4-Fc; test: ELISA, coated hB7-H4 IgV domain; remark: listed apart in the source
Experimental: as §5, §4

human B7-H4-Fc [23] = biological target: T7, human B7-H4-Fc; test: ELISA, coated hB7-H4-Fc; remark: listed apart in the source
Experimental: as §5, §4

[24] = biological target: T9, IgC domain of human B7-H4-Fc; test: ELISA, coated hB7-H4 IgC domain; remark: listed apart in the source
Experimental: as §5, §4

[25] = biological target: T4, mouse B7-H4 expressed on cells; test: flow cytometry, CHO cells expressing mB7-H4; remark: listed apart in the source
Experimental: as §5
Cells were harvested, washed once, and then re-suspended to the concentration of 1×10⁶ cells/ml in ice cold FACS Buffer. 25 μl of cell suspension was added to each well of a 96-well round-bottom microliter plate. Serially diluted antibodies or fusion proteins were added to each well and incubated for 1 hour at 4° C. Cells were washed three times by centrifugation at 1500 rpm for 5 minutes, and then stained with secondary antibody (1:200 dilution) for 30 min at 4° C. in the dark. Cells were washed once, re-suspended in 100 μl PBS buffer and then analyzed using Guava Flow Cytometry EasyCyte system.

T2 sequence (chain, as listed by the source): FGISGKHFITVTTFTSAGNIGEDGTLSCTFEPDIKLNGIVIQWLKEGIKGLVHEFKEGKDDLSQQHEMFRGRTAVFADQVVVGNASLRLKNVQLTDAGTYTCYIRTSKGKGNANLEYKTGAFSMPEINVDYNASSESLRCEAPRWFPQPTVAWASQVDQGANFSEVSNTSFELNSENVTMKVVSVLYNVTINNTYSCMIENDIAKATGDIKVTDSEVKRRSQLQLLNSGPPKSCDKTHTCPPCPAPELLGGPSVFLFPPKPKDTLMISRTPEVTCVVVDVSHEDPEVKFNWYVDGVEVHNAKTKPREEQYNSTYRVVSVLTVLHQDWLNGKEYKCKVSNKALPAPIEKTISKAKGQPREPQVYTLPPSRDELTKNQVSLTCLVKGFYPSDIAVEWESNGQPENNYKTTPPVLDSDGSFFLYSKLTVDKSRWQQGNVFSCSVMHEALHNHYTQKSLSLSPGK
T7 sequence (chain, as listed by the source): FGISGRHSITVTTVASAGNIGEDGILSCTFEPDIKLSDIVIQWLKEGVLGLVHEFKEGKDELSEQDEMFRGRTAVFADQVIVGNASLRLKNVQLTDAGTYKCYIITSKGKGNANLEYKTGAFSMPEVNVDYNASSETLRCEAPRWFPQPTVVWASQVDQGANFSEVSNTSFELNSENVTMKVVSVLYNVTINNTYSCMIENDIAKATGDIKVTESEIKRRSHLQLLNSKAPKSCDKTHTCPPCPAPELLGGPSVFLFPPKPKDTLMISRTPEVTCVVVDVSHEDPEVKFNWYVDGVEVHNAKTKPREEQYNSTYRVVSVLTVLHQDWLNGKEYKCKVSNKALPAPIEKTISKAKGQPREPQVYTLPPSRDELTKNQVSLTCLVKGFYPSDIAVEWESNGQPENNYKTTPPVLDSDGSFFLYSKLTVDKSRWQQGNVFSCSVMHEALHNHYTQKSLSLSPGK
T5 sequence (chain, as listed by the source): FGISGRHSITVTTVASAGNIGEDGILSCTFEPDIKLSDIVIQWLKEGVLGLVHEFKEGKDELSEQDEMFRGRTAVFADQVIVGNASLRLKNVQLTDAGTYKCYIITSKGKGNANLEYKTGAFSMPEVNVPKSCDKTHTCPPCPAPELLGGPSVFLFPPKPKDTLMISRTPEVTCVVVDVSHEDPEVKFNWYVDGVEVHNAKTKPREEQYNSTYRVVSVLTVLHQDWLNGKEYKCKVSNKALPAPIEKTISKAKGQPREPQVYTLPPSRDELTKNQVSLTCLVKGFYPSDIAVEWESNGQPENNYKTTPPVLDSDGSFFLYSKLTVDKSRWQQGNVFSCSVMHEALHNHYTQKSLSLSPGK
T8 sequence (chain, as listed by the source): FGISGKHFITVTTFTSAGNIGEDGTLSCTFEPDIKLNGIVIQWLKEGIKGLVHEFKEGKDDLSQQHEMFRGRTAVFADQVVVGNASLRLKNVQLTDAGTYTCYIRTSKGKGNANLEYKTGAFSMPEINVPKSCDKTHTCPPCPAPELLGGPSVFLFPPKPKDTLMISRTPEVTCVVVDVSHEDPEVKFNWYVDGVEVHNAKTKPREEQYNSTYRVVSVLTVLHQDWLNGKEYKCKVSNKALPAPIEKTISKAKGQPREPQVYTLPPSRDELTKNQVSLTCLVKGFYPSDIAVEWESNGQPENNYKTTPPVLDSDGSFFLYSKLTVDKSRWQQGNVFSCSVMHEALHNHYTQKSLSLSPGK
T9 sequence (chain, as listed by the source): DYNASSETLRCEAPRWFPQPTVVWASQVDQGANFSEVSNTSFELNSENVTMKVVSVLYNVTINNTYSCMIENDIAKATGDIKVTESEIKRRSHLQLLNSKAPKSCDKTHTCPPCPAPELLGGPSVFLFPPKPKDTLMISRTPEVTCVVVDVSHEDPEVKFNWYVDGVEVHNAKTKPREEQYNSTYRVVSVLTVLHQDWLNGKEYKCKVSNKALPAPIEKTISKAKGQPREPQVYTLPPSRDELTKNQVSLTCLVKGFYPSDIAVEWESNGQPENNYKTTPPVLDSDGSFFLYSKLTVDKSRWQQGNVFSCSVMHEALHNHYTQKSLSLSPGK
T10 sequence (chain, as listed by the source): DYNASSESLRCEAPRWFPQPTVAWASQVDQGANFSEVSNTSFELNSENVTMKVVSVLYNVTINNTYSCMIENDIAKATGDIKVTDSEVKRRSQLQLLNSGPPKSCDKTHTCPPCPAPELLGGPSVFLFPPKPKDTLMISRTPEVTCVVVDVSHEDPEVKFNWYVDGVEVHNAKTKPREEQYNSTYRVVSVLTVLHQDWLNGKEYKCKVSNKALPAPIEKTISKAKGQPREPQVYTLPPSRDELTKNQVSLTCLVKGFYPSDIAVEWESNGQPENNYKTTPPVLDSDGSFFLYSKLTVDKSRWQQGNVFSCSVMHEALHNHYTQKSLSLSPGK

EC50 [1]: 136 pM | Kd (mouse B7-H4-Fc [2]): 1530 pM | Kd [3]: 13000 pM | Kd [4]: 1050 pM | EC50 [5]: 6730 pM | EC50 (read off the curve) [6]: ~300 pM | EC50 [7]: 4170 pM | Kd (human B7-H4-Fc [8]): 926 pM | EC50 [9]: 80 pM | EC50 (read off the curve) [10]: ~200 pM
B1: 39A11/39A11 (antibody, human IgG1, V domains shown)
VH: EVQLLESGGGLVQPGGSLRLSCAASGFTFSSYGMHWVRQAPGKGLEWVASISSSSGYIYYADSVKGRFTISRDNSKNTLYLQMNSLRAEDTAVYYCARASSGMDVWGQGTTVTVSS
VL: DIQMTQSPSSLSASVGDRVTITCRASQTIRSYLNWYQQKPGKAPKLLIYAASHLQSGVPSRFSGSGSGTDFTLTISSLQPEDFATYYCQQSYTTPYTFGQGTKLEIK
binding result [11]: no binding (tested: axis value -8 (labelled log nM)) | binding result [12]: no binding (tested: axis value -8 (labelled log nM))

binding result [13]: no binding (tested: 20 nM) | Kd (human B7-H4-his [14]): 4130 pM | Kd (human B7-H4-Fc [8]): 2890 pM | binding result (mouse B7-H4-his): no binding | binding result [15]: no binding (tested: 20 nM) | binding result [16]: no binding | binding result (mouse B7-H4-Fc [17]): no binding (tested: 20 nM) | EC50 (read off the curve) (human B7-H4-Fc [18]): ~70 pM | binding result [19]: no binding
B2: 4B9/4B9 (antibody, human IgG1, V domains shown)
VH: QVQLVQSGAEVKKPGASVKVSCKASGYTFTSYYMHWVRQAPGQGLEWMGWMNPNSGNTGYAQKFQGRVTMTRDTSTSTVYMELSSLRSEDTAVYYCARGQGRYLNYYYMDVWGKGTTVTVSS
VL: DIQMTQSPSSLSASVGDRVTITCRVSQGISNYLAWYQQKPGKAPKLLIYDASSLQSGVPSRFSGSGSGTDFTLTISSLQPEDFATYYCQQSYSTPFTFGPGTKVDIK

binding result (mouse B7-H4-Fc [20]): no binding (tested: log 1 nM (10 nM)) | EC50 (read off the curve) (human B7-H4-his [21]): ~60 pM | EC50 (read off the curve) [22]: ~70 pM | EC50 (read off the curve) (human B7-H4-Fc [23]): ~70 pM | binding result [16]: no binding
B3: 9H2/9H2 (antibody, V domains shown)
VH: QVQLVQSGAEVKKPGSSVKVSCKASGGTFSTYAINWVRQAPGQGLEWMGGINPMFGTARYAQKFQGRVTITADESTSTAYMELSSLRSEDTAVYYCARGRLHRHWGQGTLVTVSS
VL: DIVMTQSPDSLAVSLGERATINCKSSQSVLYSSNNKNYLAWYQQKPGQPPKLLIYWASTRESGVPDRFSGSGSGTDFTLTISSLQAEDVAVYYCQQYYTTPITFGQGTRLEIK
binding result [24]: no binding (tested: log 0.3 ug/ml (about 2 ug/ml)) | binding result [25]: no binding (tested: log 2.3 nM (about 200 nM))
